Patent publication US20150004162A1

Target: human DR5 (human) (UniProt O14763)
Test: ELISA, half-log dilutions on wells coated with 1 microgram/ml human DR5, anti-mouse polyclonal antibody-HRP

Chain of human DR5 (human) (O14763 other isoform, or with tags, fused parts or gaps limits assumed): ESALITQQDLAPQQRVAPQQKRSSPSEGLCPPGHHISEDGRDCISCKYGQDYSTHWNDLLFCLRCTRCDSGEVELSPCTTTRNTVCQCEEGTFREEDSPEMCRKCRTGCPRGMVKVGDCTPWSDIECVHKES

How did the EC50 turn out when MAB631 (antibody) was run?
The EC50 was 0.0651 nM.
